From the supplement of paper PMC10567573

B1: TRIB1 (parent)
chain: EIGTSDQIVPEYQEDSDISSFFC
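Further: lentivirally expressed fusions sorted by FACS into six bins by GFP to DsRed ratio, PSI derived from sequencing read proportions per bin multiplied by bin number.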

Variants of: B1
Experiment: protein stability index of a GFP-peptide fusion (GPS, HEK-293T) (PSI 1-6); higher = more stable
Conditions: c terminus: native
EINTSDQIVPEYQEDSDISSFFC [G3N] gave a protein stability index of 2.81.
Variant EIMTSDQIVPEYQEDSDISSFFC [G3M] has a protein stability index of 2.83.
With EIGTVDQIVPEYQEDSDISSFFC [S5V] the protein stability index was 3.15.
EIGTDDQIVPEYQEDSDISSFFC [S5D] showed a protein stability index of 2.97.
EIGTKDQIVPEYQEDSDISSFFC [S5K] showed a protein stability index of 3.47.
Work on EIGTEDQIVPEYQEDSDISSFFC [S5E] yielded a protein stability index of 2.77.
EIGTTDQIVPEYQEDSDISSFFC [S5T] showed a protein stability index of 2.2.
EIGTPDQIVPEYQEDSDISSFFC [S5P] showed a protein stability index of 3.07.
EIGTGDQIVPEYQEDSDISSFFC [S5G] showed a protein stability index of 3.2.
In the case of EIGTIDQIVPEYQEDSDISSFFC [S5I], the protein stability index is reported as 2.95.
EIGTNDQIVPEYQEDSDISSFFC [S5N] gave a protein stability index of 2.9.
EIGTMDQIVPEYQEDSDISSFFC [S5M] showed a protein stability index of 2.56.
EIGTRDQIVPEYQEDSDISSFFC [S5R] gave a protein stability index of 2.77.
EIGTCDQIVPEYQEDSDISSFFC [S5C] showed a protein stability index of 2.72.
Variant EIGTWDQIVPEYQEDSDISSFFC [S5W] has a protein stability index of 3.02.
EIGTADQIVPEYQEDSDISSFFC [S5A] showed a protein stability index of 2.81.
EIGTYDQIVPEYQEDSDISSFFC [S5Y] gave a protein stability index of 1.73.
EIGTQDQIVPEYQEDSDISSFFC [S5Q] gave a protein stability index of 2.42.
With EIGTFDQIVPEYQEDSDISSFFC [S5F] the protein stability index was 2.31.
With EIGTHDQIVPEYQEDSDISSFFC [S5H] the protein stability index was 3.06.
With EIGTLDQIVPEYQEDSDISSFFC [S5L] the protein stability index was 2.95.
EIGSSDQIVPEYQEDSDISSFFC [T4S] gave a protein stability index of 2.87.
In the case of EIGYSDQIVPEYQEDSDISSFFC [T4Y], the protein stability index is reported as 3.1.
Work on EIGESDQIVPEYQEDSDISSFFC [T4E] yielded a protein stability index of 2.86.
In the case of EIGRSDQIVPEYQEDSDISSFFC [T4R], the protein stability index is reported as 2.88.
Work on EIGLSDQIVPEYQEDSDISSFFC [T4L] yielded a protein stability index of 2.77.
For EIGKSDQIVPEYQEDSDISSFFC [T4K], the protein stability index was 3.25.
With EIGQSDQIVPEYQEDSDISSFFC [T4Q] the protein stability index was 2.25.
With EIGGSDQIVPEYQEDSDISSFFC [T4G] the protein stability index was 3.12.
In the case of EIGCSDQIVPEYQEDSDISSFFC [T4C], the protein stability index is reported as 2.33.
Work on EIGWSDQIVPEYQEDSDISSFFC [T4W] yielded a protein stability index of 2.73.
With EIGISDQIVPEYQEDSDISSFFC [T4I] the protein stability index was 2.62.
EIGVSDQIVPEYQEDSDISSFFC [T4V] showed a protein stability index of 2.67.
EIGMSDQIVPEYQEDSDISSFFC [T4M] showed a protein stability index of 2.67.
In the case of EIGASDQIVPEYQEDSDISSFFC [T4A], the protein stability index is reported as 3.23.
EIGFSDQIVPEYQEDSDISSFFC [T4F] gave a protein stability index of 3.18.
Variant EIGNSDQIVPEYQEDSDISSFFC [T4N] has a protein stability index of 2.39.
Work on EIGPSDQIVPEYQEDSDISSFFC [T4P] yielded a protein stability index of 3.22.
Work on EIGDSDQIVPEYQEDSDISSFFC [T4D] yielded a protein stability index of 2.32.
For EIGHSDQIVPEYQEDSDISSFFC [T4H], the protein stability index was 2.55.
EIGTSDQQVPEYQEDSDISSFFC [I8Q] showed a protein stability index of 3.93.
In the case of EIGTSDQKVPEYQEDSDISSFFC [I8K], the protein stability index is reported as 4.03.
EIGTSDQTVPEYQEDSDISSFFC [I8T] showed a protein stability index of 4.29.
With EIGTSDQFVPEYQEDSDISSFFC [I8F] the protein stability index was 5.17.
Variant EIGTSDQHVPEYQEDSDISSFFC [I8H] has a protein stability index of 5.15.
EIGTSDQPVPEYQEDSDISSFFC [I8P] gave a protein stability index of 5.36.
Variant EIGTSDQDVPEYQEDSDISSFFC [I8D] has a protein stability index of 5.12.
Variant EIGTSDQEVPEYQEDSDISSFFC [I8E] has a protein stability index of 4.19.
Work on EIGTSDQCVPEYQEDSDISSFFC [I8C] yielded a protein stability index of 3.62.
With EIGTSDQSVPEYQEDSDISSFFC [I8S] the protein stability index was 5.18.
Work on EIGTSDQGVPEYQEDSDISSFFC [I8G] yielded a protein stability index of 4.66.
Work on EIGTSDQLVPEYQEDSDISSFFC [I8L] yielded a protein stability index of 4.11.
With EIGTSDQWVPEYQEDSDISSFFC [I8W] the protein stability index was 4.69.
Variant EIGTSDQYVPEYQEDSDISSFFC [I8Y] has a protein stability index of 5.08.
Work on EIGTSDQAVPEYQEDSDISSFFC [I8A] yielded a protein stability index of 4.82.
In the case of EIGTSDQMVPEYQEDSDISSFFC [I8M], the protein stability index is reported as 3.54.
In the case of EIGTSDQNVPEYQEDSDISSFFC [I8N], the protein stability index is reported as 5.32.
With EIGTSDQVVPEYQEDSDISSFFC [I8V] the protein stability index was 2.07.
With EIGTSDQRVPEYQEDSDISSFFC [I8R] the protein stability index was 3.56.
For EIGTSDTIVPEYQEDSDISSFFC [Q7T], the protein stability index was 5.64.
Variant EIGTSDEIVPEYQEDSDISSFFC [Q7E] has a protein stability index of 5.58.
In the case of EIGTSDYIVPEYQEDSDISSFFC [Q7Y], the protein stability index is reported as 4.43.
Work on EIGTSDPIVPEYQEDSDISSFFC [Q7P] yielded a protein stability index of 5.3.
With EIGTSDDIVPEYQEDSDISSFFC [Q7D] the protein stability index was 5.53.
EIGTSDHIVPEYQEDSDISSFFC [Q7H] gave a protein stability index of 5.
Work on EIGTSDLIVPEYQEDSDISSFFC [Q7L] yielded a protein stability index of 4.94.
EIGTSDRIVPEYQEDSDISSFFC [Q7R] gave a protein stability index of 5.27.
With EIGTSDVIVPEYQEDSDISSFFC [Q7V] the protein stability index was 5.02.
In the case of EIGTSDAIVPEYQEDSDISSFFC [Q7A], the protein stability index is reported as 5.23.
EIGTSDMIVPEYQEDSDISSFFC [Q7M] showed a protein stability index of 4.79.
With EIGTSDSIVPEYQEDSDISSFFC [Q7S] the protein stability index was 5.2.
EIGTSDNIVPEYQEDSDISSFFC [Q7N] showed a protein stability index of 4.88.
Variant EIGTSDCIVPEYQEDSDISSFFC [Q7C] has a protein stability index of 5.1.
Work on EIGTSDFIVPEYQEDSDISSFFC [Q7F] yielded a protein stability index of 3.76.
EIGTSDWIVPEYQEDSDISSFFC [Q7W] gave a protein stability index of 4.
EIGTSDKIVPEYQEDSDISSFFC [Q7K] gave a protein stability index of 5.04.
Work on EIGTSDGIVPEYQEDSDISSFFC [Q7G] yielded a protein stability index of 5.28.
Variant EIGTSDIIVPEYQEDSDISSFFC [Q7I] has a protein stability index of 4.95.
For EIGTSDQIVKEYQEDSDISSFFC [P10K], the protein stability index was 5.56.
For EIGTSDQIVCEYQEDSDISSFFC [P10C], the protein stability index was 5.2.
EIGTSDQIVQEYQEDSDISSFFC [P10Q] showed a protein stability index of 4.9.
With EIGTSDQIVREYQEDSDISSFFC [P10R] the protein stability index was 5.56.
In the case of EIGTSDQIVAEYQEDSDISSFFC [P10A], the protein stability index is reported as 5.38.
EIGTSDQIVTEYQEDSDISSFFC [P10T] showed a protein stability index of 5.48.
For EIGTSDQIVIEYQEDSDISSFFC [P10I], the protein stability index was 4.09.
With EIGTSDQIVMEYQEDSDISSFFC [P10M] the protein stability index was 5.19.
Work on EIGTSDQIVSEYQEDSDISSFFC [P10S] yielded a protein stability index of 5.59.
Variant EIGTSDQIVNEYQEDSDISSFFC [P10N] has a protein stability index of 5.23.
Variant EIGTSDQIVLEYQEDSDISSFFC [P10L] has a protein stability index of 4.87.
Work on EIGTSDQIVEEYQEDSDISSFFC [P10E] yielded a protein stability index of 5.54.
Work on EIGTSDQIVFEYQEDSDISSFFC [P10F] yielded a protein stability index of 3.77.
Variant EIGTSDQIVDEYQEDSDISSFFC [P10D] has a protein stability index of 5.63.
Work on EIGTSDQIVWEYQEDSDISSFFC [P10W] yielded a protein stability index of 4.52.
In the case of EIGTSDQIVVEYQEDSDISSFFC [P10V], the protein stability index is reported as 5.1.
With EIGTSDQIVGEYQEDSDISSFFC [P10G] the protein stability index was 4.82.
Work on EIGTSDQIVHEYQEDSDISSFFC [P10H] yielded a protein stability index of 5.41.
In the case of EIGTSDQIVYEYQEDSDISSFFC [P10Y], the protein stability index is reported as 4.71.
